Assay [1] concerns the target McdB CC + CTD truncation (Synechococcus elongatus PCC 7942). In words: SEC-MALS; Shodex PROTEIN KW-804; 50 µl at 1.5 mg/ml; 150 mM KCl, 20 mM Tris-HCl pH 8.2; BSA as calibration standard. (In general: SEC sorts molecules by how far they enter the pores of the column.)
Assay [2] deals with McdB CC domain truncation (Synechococcus elongatus PCC 7942). The description is as above.
Assay [3] addresses McdB IDR + CC truncation (Synechococcus elongatus PCC 7942). The description is as above.
Assay [4] has as its target McdB with all six basic residues of the IDR substituted to glutamines (Synechococcus elongatus PCC 7942). Described as above.
Assay [5] addresses Se7942 McdB (full-length, wild type) (Synechococcus elongatus PCC 7942). The description is as above.
Another assay has as its target McdB CTD 2Q left. In words: SEC-MALS.
In assay [6] the target is McdB with four glutamine substitutions in the CTD. Nature of the assay: SEC-MALS.
Assay [7] has the same target. In words: SEC-MALS. The source holds these as a separate data set.
Assay [8] addresses McdB with all six basic residues of the IDR substituted to glutamines. Nature of the assay: SEC-MALS.

In the case of “McdB CC + CTD truncation (domain or fragment)”, the stoichiometry N (in general, the number of molecules, sites or subunits per partner or assembly) in assay [1] is 6.

Turning to “McdB CC domain truncation (domain or fragment)”, the stoichiometry N in assay [2] is 2. Take “McdB IDR + CC truncation (domain or fragment)”: the stoichiometry N in assay [3] stood at 2. The substance “McdB with all six basic residues of the IDR substituted to glutamines (natural protein)” returned a stoichiometry N in assay [4] of 6.

In assay [5], “Se7942 McdB (full-length, wild type) (natural protein)” showed a stoichiometry N of 6. For the substance “Se7942 McdB (full-length, wild type) CTD 2Q left: … -> … (E->Q, E->Q at segment positions 1, 2)”, the other: multiple (oligomer MW over monomer MW) in the assay with McdB CTD 2Q left (parent: 5.5) was determined as 4.5 x. The other: oligomer MW (SEC-MALS) in the assay with McdB CTD 2Q left (parent: 96.4) is 77.8 kDa. Consider “Se7942 McdB (full-length, wild type) CTD all: … -> … (E->Q, E->Q, E->Q, D->Q at segment positions 1, 2, 9, 11)”, for which the other: multiple (oligomer MW over monomer MW) in [6] (parent: 5.5) and in assay [7] (parent: 5.5) was 1.8 x in each case. The other: oligomer MW (SEC-MALS) in assay [6] (parent: 96.4) and in assay [7] (parent: 96.4) was 31.8 kDa throughout. Turning to “Se7942 McdB (full-length, wild type) R7Q; K9Q; K10Q; R11Q; R13Q; R18Q”, the other: multiple (oligomer MW over monomer MW) in assay [8] (parent: 5.5) was found to be 5.6 x. Further, the other: oligomer MW (SEC-MALS) in [8] (parent: 96.4) stood at 96.1 kDa.

The values are drawn from PMC10554743.
